Data published in patent US20220195043A1 (BEIJING MABWORKS BIOTECH, published 2022).
Residue numbers refer to the chain shown, from its start. In names and notes the source's numbering stands. Each block holds one binder with its values, some of them ahead of it.

Columns and labels:
[1] = molecular target: T1, human CD3ε-his (Cat #:10977-H08s, SinoBiological, China) (human, UniProt P07766 23-126); assay: SPR (BIAcore 8K); human CD3ε-his coupled to CM5 chip, antibody injected
T1 construct: Bought protein; also called human CD3ε protein; recombinant human CD3ε; not shown: his tag

[2] = molecular target: T2, human TCR/CD3 complex on cell surfaces (primary human CD4+ T cells; Jurkat cells; human PBMCs) (human, UniProt P07766 23-207); assay: FACS on primary human T cells, PE goat anti-human IgG, MFI
T2 construct: whole, on cells; Native complex on cells; the γ, δ, ζ and TCR chains of the complex are present on the cells too; also called human CD3 complexes on cell surfaces; human CD3+ T cells

[3] = molecular target: T3, human CD64 (HEK293A/human CD64 cells) (human, UniProt P12314 16-374); assay: FACS on HEK293A/human CD64 cells, PE F(ab')2 goat anti-human IgG Fc, MFI; bars at 40, 8, 1.6, 0.32 and 0.064 µg/mL
T3 construct: Stably expressed on HEK293A cells; also called FcγRI

[4] = molecular target: T4, human CD16A (HEK293A/human CD16A cells) (human, UniProt P08637 17-254); assay: FACS on HEK293A/human CD16A cells, PE F(ab')2 goat anti-human IgG Fc, MFI; bars at 40, 8, 1.6, 0.32 and 0.064 µg/mL
T4 construct: Stably expressed on HEK293A cells; also called FcγRIIIA

[5] = molecular target: T2, human TCR/CD3 complex on cell surfaces …; assay: FACS on Jurkat cells, PE goat anti-human IgG, MFI
[6] = molecular target: T5, human CD32B (HEK293A/human CD32B cells) (human, UniProt P31994 43-310); assay: FACS on HEK293A/human CD32B cells, PE F(ab')2 goat anti-human IgG Fc, MFI; bars at 40, 8, 1.6, 0.32 and 0.064 µg/mL
T5 construct: Stably expressed on HEK293A cells; also called FcγRIIB
T5 sequence: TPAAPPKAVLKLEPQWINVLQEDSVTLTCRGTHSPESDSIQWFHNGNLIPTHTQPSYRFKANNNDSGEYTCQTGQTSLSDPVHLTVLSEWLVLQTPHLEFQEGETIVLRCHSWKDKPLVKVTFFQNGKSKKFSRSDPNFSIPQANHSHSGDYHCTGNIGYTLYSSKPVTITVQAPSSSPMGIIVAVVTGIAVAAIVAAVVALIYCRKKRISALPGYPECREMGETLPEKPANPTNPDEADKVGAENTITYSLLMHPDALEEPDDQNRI

[7] = molecular target: T6, human CD32A (HEK293A/human CD32A cells) (human, UniProt P12318 34-317); assay: FACS on HEK293A/human CD32A cells, PE F(ab')2 goat anti-human IgG Fc, MFI; bars at 40, 8, 1.6, 0.32 and 0.064 µg/mL
T6 construct: Stably expressed on HEK293A cells; also called FcγRIIA
T6 sequence: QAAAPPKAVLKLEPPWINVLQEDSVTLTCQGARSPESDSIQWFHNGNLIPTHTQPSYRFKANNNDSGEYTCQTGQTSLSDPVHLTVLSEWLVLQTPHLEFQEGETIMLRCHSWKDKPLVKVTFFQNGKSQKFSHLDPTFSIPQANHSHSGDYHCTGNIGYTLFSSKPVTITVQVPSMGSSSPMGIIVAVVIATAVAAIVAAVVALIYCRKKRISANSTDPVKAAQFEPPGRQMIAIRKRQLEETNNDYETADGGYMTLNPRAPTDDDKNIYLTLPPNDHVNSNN

[8] = molecular target: T1, human CD3ε-his (Cat #:10977-H08s, …); assay: ELISA: plate coated with human CD3ε-his, antibody titrated, HRP goat anti-human IgG, OD450
[9] = molecular target: T7, monkey CD3ε-his (Cat #: 90047-C08H, SinoBiological, China) (monkey, UniProt Q95LI5 22-117); assay: ELISA: plate coated with monkey CD3ε-his, antibody titrated, HRP goat anti-human IgG, OD450
T7 construct: Bought protein; also called monkey CD3ε protein; recombinant monkey CD3ε
T7 sequence: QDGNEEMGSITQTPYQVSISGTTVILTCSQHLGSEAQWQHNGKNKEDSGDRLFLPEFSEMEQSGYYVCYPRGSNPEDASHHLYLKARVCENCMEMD

[10] = molecular target: T7, monkey CD3ε-his (Cat #: 90047-C08H, …); assay: ELISA: plate coated with monkey CD3ε-his, antibody titrated, HRP goat anti-human IgG, OD 450
[11] = molecular target: T1, human CD3ε-his (Cat #:10977-H08s, …); assay: ELISA: plate coated with human CD3ε-his, antibody titrated, HRP goat anti-human IgG, OD 450

T3 sequence (P12314 16-374 limits assumed): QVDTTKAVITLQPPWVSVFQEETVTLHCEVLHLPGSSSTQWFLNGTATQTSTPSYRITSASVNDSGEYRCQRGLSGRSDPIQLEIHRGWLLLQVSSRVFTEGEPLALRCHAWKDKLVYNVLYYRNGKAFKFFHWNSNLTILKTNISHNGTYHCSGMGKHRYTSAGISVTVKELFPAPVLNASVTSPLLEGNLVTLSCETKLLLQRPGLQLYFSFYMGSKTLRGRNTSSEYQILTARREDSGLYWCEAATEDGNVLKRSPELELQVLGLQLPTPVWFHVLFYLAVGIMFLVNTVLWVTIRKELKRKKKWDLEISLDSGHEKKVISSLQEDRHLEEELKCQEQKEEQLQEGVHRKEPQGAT
T1 sequence (P07766 23-126 limits assumed): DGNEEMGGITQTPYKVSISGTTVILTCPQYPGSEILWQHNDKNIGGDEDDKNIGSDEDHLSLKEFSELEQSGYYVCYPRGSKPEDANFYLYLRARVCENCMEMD
T4 sequence (P08637 17-254 F176V limits assumed): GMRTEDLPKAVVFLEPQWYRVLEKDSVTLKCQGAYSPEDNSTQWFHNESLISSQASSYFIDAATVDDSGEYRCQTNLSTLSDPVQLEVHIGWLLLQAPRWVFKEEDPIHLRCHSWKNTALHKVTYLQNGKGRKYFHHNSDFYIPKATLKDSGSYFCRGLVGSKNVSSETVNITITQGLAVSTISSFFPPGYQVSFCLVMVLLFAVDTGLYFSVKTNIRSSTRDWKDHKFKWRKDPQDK
T2 sequence (P07766 23-207, one chain of several): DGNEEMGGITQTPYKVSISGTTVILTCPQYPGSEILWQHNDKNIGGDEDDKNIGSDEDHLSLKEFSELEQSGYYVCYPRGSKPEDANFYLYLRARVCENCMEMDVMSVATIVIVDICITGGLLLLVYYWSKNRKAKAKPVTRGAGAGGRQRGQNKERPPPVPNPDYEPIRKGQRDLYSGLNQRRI

Kd [1]: 154 pM
B1: mAB2 (anti-CD3 antibody of Macrogenics, positive control) (antibody, V domains shown)
VH: EVQLVESGGGLVQPGGSLKLSCAASGFTFNTYAMNWVRQAPGKGLEWVARIRSKYNNYATYYADSVKDRFTISRDDSKNTAYLQMNSLKTEDTAVYYCVRHGNFGDSYVSWFAYWGQGTLVTVSS
VL: QTVVTQEPSLTVSPGGTVTLTCRSSTGAVTTSNYANWVQQKPGQAPRGLIGGTNKRAPGTPARFSGSLLGGKAALTLSGVQPEDEAEYYCALWYSNLWVFGGGTKLTVL

EC50 (read off the curve) [2]: ~100 µg/mL
B2: chimeric antibody 19-37 (full length, human IgG1) (antibody, V domains shown)
VH: EVKLLESGGGLVQPKGSLKLSCAASGFTFNTYAMNWVRQAPGKGLEWVARIRSKYNNYATYYAISVKDRFTISRDDSQSILYLQMNNLKTEDTAMYYCVRHGNFGNSYISYWAYWGQGTLVTVSA
VL: QAVVTQESALTTSPGETVTLTCRSSTGAVTTNNYANWVQEKPDHLFTGLIGGTRLSAPGVPARFSGSLIGDKAALTITGAQTEDEAIYFCVLWYSNLWVFGGGTKLTVLG

binding result [3]: binds | binding result [4]: binds | EC50 (read off the curve) [5]: ~0.1 µg/mL | binding result [6]: binds | binding result [7]: binds
B3: 15H3L3-WT (15H3L3 with wild-typed IgG1 constant region and λ constant region SEQ ID NO: 32) (antibody)
heavy: not shown
light: QAVVTQEPSLTVSPGGTVTLTCQSSTGAVTTNNYANWVQQKPGHAFRGLIGGTKQRAPGVPARFSGSLLGGKAALTLSGVQPEDEAEYYCVLWYSNLWVFGGGTKLTVLGQPKAAPSVTLFPPSSEELQANKATLVCLISDFYPGAVTVAWKADSSPVKAGVETTTPSKQSNNKYAASSYLSLTPEQWKSHRSYSCQVTHEGSTVEKTVAPT
notes: also called 15H3L3 antibody with wild-typed Fc region

binding result [3]: no binding (tested: 40 µg/mL) | binding result [4]: no binding (tested: 40 µg/mL) | EC50 (read off the curve) [5]: ~0.09 µg/mL | binding result [6]: no binding (tested: 40 µg/mL) | binding result [7]: no binding (tested: 40 µg/mL)
B4: 15H3L3-LLNP (15H3L3 with IgG1 constant region L234A/L235A/N297A/P329G) (antibody)
heavy: EVQLLESGGGLVQPGGSLRLSCAASGFTFNTYAMNWVRQAPGKGLEWVARIRSKYNNYATYYAISVKDRFTISRDDSKNTLYLQMNSLRAEDTAMYYCVRHGNFGNSYLSYWAYWGQGTLVTVSSASTKGPSVFPLAPSSKSTSGGTAALGCLVKDYFPEPVTVSWNSGALTSGVHTFPAVLQSSGLYSLSSVVTVPSSSLGTQTYICNVNHKPSNTKVDKKVEPKSCDKTHTCPPCPAPEAAGGPSVFLFPPKPKDTLMISRTPEVTCVVVDVSHEDPEVKFNWYVDGVEVHNAKTKPREEQYASTYRVVSVLTVLHQDWLNGKEYKCKVSNKALGAPIEKTISKAKGQPREPQVYTLPPSREEMTKNQVSLTCLVKGFYPSDIAVEWESNGQPENNYKTTPPVLDSDGSFFLYSKLTVDKSRWQQGNVFSCSVMHEALHNHYTQKSLSLSPGK
light: B3 light
notes: also called 15H3L3-LLPN

binding result [3]: no binding (tested: 40 µg/mL) | binding result [4]: no binding (tested: 40 µg/mL) | EC50 (read off the curve) [5]: ~0.09 µg/mL
B5: 15H3L3-LLP (15H3L3 with IgG1 constant region L234A/L235A/P329G) (antibody)
heavy: B4 heavy with A305N
light: B3 light

binding result [3]: no binding (tested: 40 µg/mL) | binding result [4]: no binding (tested: 40 µg/mL) | EC50 (read off the curve) [5]: ~0.09 µg/mL | binding result [7]: no binding (tested: 40 µg/mL)
B6: 15H3L3-LLN (15H3L3 with IgG1 constant region L234A/L235A/N297A) (antibody)
heavy: B4 heavy with G337P
light: B3 light

binding result [3]: binds | binding result [4]: no binding (tested: 40 µg/mL) | EC50 (read off the curve) [5]: ~0.09 µg/mL | binding result [6]: binds | binding result [7]: binds
B7: 15H3L3-LL (15H3L3 with IgG1 constant region L234A/L235A) (antibody)
heavy: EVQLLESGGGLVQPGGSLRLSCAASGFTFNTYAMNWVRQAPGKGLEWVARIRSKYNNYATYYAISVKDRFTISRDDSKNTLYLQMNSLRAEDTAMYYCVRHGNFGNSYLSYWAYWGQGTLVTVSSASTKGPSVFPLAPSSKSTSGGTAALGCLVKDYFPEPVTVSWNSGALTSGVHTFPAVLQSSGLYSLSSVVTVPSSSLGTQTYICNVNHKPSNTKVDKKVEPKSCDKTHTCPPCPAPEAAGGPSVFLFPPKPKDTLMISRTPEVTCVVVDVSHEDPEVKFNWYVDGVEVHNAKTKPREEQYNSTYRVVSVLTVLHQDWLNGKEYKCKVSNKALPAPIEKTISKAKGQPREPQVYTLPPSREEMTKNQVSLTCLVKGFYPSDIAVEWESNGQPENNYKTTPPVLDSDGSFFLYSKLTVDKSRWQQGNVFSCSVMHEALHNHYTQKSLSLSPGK
light: B3 light

EC50 (read off the curve) [8]: ~80 µg/mL | EC50 (read off the curve) [9]: ~90 µg/mL
B8: humanized anti-CD3 antibody 15H2L3 (human IgG1) (antibody, V domains shown)
VH: EVQLLESGGGLVQPGGSLRLSCAASGFTFNTYAMNWVRQAPGKGLEWVARIRSKYNNYATYYAISVKDRFTISRDNSKNTLYLQMNSLRAEDTAVYYCVKHGNFGNSYLSYWAYWGQGTLVTVSS
VL: QAVVTQEPSLTVSPGGTVTLTCQSSTGAVTTNNYANWVQQKPGHAFRGLIGGTKQRAPGVPARFSGSLLGGKAALTLSGVQPEDEAEYYCVLWYSNLWVFGGGTKLTVLG

EC50 (read off the curve) [10]: ~0.1 µg/mL | EC50 (read off the curve) [11]: ~0.08 µg/mL
B9: humanized anti-CD3 antibody 26H3L3 (human IgG1) (antibody, V domains shown)
VH: B8 VH with I64D, N76D, V95M, K100R, L109I, Y111W
VL: B8 VL with Q23K, N32S, K54N, Q55L, R56H, V91A
